Data taken from US20160108087A1 (ROYAL INSTITUTION FOR THE ADVANCEMENT OF LEARNING MCGILL …, published 2016).

B1: 14-3-3ε protein (mouse, endogenous in MA-10 mouse Leydig tumor cells) (other, UniProt P62259 1-255, looked up)
chain: MDDREDLVYQAKLAEQAERYDEMVESMKKVAGMDVELTVEERNLLSVAYKNVIGARRASWRIISSIEQKEENKGGEDKLKMIREYRQMVETELKLICCDILDVLDKHLIPAANTGESKVFYYKMKGDYHRYLAEFATGNDRKEAAENSLVAYKAASDIAMTELPPTHPIRLGLALNFSVFYYEILNSPDRACRLAKAAFDDAIAELDTLSEESYKDSTLIMQLLRDNLTLWTSDMQGDGEEQNKEALQDVEDENQ
notes: whole, on cells; Endogenous intracellular protein, detected in fixed cells (Duolink) or cell lysates (co-IP); also called YWHAE gene product; mitochondrial import stimulating factor
B2: TAT-VDAC1 fusion peptide S35 (TVS35) (peptide)
peptide: YGRKKRRQRRRGKLDLKTKSENGLE
notes: also called TAT-VDAC1 Ser35
B3: TAT-VDAC1 Gly35 (TVG35) (peptide)
peptide: YGRKKRRQRRRGKLDLKTKGENGLE
notes: also called TVS35G
B4: TAT-VDAC1 fusion peptide S167 (TVS167) (peptide)
peptide: YGRKKRRQRRRGSKSRVTQSNFAVG
notes: A FAM-labelled form was used only to show cell penetration; also called TAT-VDAC1 Ser167; TV167
B5: TAT-VDAC1 Gly167 (TVG167) (peptide)
peptide: YGRKKRRQRRRGSKSRVTQGNFAVG
notes: also called TVS167G
B6: 14-3-3ε protein (rat, endogenous in testes sections of Sprague-Dawley rats) (other, UniProt P62260 1-255, looked up)
chain: B1 chain
notes: whole, on cells; Endogenous protein in tissue sections
B7: 14-3-3ε protein (human, endogenous in NCL-H295R adrenocortical cells) (other, UniProt P62258 1-255, looked up)
chain: B1 chain
notes: whole, on cells; Endogenous protein

Key:
[1] = target: T1, translocator protein (TSPO), mouse, endogenous in MA-10 cells (mouse, UniProt P50637 1-169); assay: Duolink in cell IP in MA-10 cells, signal/cell ratio, with TVS167 and 8-Br-cAMP (120 min)
T1 construct: whole, on cells; Endogenous outer mitochondrial membrane protein
T1 sequence (P50637 whole entry): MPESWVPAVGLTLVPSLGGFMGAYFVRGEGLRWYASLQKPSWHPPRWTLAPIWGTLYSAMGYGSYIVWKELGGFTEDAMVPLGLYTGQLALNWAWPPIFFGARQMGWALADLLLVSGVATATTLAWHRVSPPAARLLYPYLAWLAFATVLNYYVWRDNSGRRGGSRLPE

[2] = target: T2, VDAC1 protein (mouse, endogenous in MA-10 cells) (mouse, UniProt Q60932 14-296); assay: Duolink in cell IP in MA-10 cells (figure legend)
T2 construct: Endogenous protein of the outer mitochondrial membrane in MA-10 cells; also called voltage-dependent anion-selective channel protein 1; mVDAC1
T2 sequence (Q60932 14-296): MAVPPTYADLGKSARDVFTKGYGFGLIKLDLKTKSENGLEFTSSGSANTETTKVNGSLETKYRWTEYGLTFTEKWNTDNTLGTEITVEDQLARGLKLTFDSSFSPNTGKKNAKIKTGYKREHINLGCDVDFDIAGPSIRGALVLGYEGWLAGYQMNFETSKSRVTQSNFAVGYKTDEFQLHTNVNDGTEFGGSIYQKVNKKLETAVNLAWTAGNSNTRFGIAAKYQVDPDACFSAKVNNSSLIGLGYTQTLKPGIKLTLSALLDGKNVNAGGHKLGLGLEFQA

[3] = target: B1; assay: Duolink in cell IP in MA-10 cells, competition with endogenous VDAC1, 250 nM peptide
[4] = target: T3, VDAC1 protein (rat, endogenous in testes sections of Sprague-Dawley rats) (rat, UniProt Q9Z2L0 1-283); assay: Duolink assay on rat testes sections (figure legend)
T3 construct: Endogenous protein in tissue sections
T3 sequence (Q9Z2L0 whole entry): as the sequence (Q60932 14-296) above

[5] = target: T4, VDAC1 protein (human, endogenous in NCL-H295R adrenocortical cells) (human, UniProt P21796 2-283); assay: Duolink assay in human adrenocortical cell line (figure legend)
T4 construct: Endogenous protein
T4 sequence (P21796 2-283 limits assumed, stated change not applied): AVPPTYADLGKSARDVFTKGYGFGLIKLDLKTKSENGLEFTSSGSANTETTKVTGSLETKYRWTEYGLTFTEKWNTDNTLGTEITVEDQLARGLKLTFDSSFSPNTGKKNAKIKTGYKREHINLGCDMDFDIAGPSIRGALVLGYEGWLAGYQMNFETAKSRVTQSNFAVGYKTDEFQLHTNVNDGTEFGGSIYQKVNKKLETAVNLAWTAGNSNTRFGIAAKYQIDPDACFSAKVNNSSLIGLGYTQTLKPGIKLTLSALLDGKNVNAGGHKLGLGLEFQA

Binder | binding result [3] | also measured
B1 | – | fold increase of interactions in the presence of TVS167 against untreated control [1]: 1.6 fold; binding result [2]: binds
B2 | binds | –
B3 | binds | –
B4 | binds | –
B5 | binds | –
B6 | – | binding result [4]: binds
B7 | – | binding result [5]: binds
